Reference: patent US20230051538A1 (UNIVERSITY OF BRITISH COLUMBIA, published 2023)
Substitutions are numbered along the chain they refer to. Read-outs that look alike come from different tables or passages of the source. Where no end group is shown, it is not given here.

Columns and labels:
[1] = target: T1, cyclo(CGGTKEQGGGG)-BSA (also: conjugated to BSA via maleimide-based coupling); assay: indirect ELISA
T1 construct: also called (2,4)-C-BSA; 2,4-C-BSA
T1 peptide: cyclo(CGGTKEQGGGG)

[2] = target: T2, Linear CGTKEQGGGG-BSA (also: conjugated to BSA); assay: indirect ELISA
T2 construct: linear peptide-BSA screening antigen; also called (1,4)-L-BSA; 1,4-L-BSA
T2 peptide: CGTKEQGGGG

[3] = target: T3, cyclo(CGTKEQGGGG)-BSA (also: conjugated to BSA via maleimide-based coupling); assay: indirect ELISA
T3 construct: also called (1,4)-C-BSA; 1,4-C-BSA
T3 peptide: cyclo(CGTKEQGGGG)

[4] = target: T4, alpha-synuclein oligomers (UniProt P37840 1-140); assay: cell-based or functional assay
[5] = target: T5, alpha-synuclein sonicated preformed fibrils (soluble fibrils) (human, UniProt P37840 1-140); assay: Millipore SMC, antibody-coated magnetic particles, detection with labeled 4D6
[6] = target: T4, alpha-synuclein oligomers; assay: as above
[7] = target: T6, HSA (human, UniProt P02768 25-609); assay: indirect ELISA
T6 construct: irrelevant antigen in ELISA; read as human serum albumin; also called Hum; SA; HAS

[8] = target: T1, cyclo(CGGTKEQGGGG)-BSA; assay: indirect ELISA
[9] = target: T7, Human Transferrin (human, UniProt P02787 20-698); assay: indirect ELISA
T7 construct: irrelevant antigen in ELISA; also called HT

[10] = target: T8, Bovine serum albumin (BSA) (bovine, UniProt P02769 25-607); assay: indirect ELISA
T8 construct: carrier protein alone as ELISA control

[11] = target: T9, cyclo(CGGTKEQGGGG), free (cyclized via a head-to-tail (C-G) amide bond); assay: indirect ELISA
T9 construct: free cyclic peptide, not conjugated; also called (2,4)-C-FREE
T9 peptide: CGGTKEQGGGG

[12] = target: T5, alpha-synuclein sonicated preformed …; assay: SPR, antibody immobilized, kinetic fitting, 1:1 model
[13] = target: T4, alpha-synuclein oligomers; assay: as above
[14] = target: T6, HSA; assay: indirect ELISA; remark: listed apart in the source
[15] = target: T7, Human Transferrin; assay: indirect ELISA; remark: listed apart in the source
[16] = target: T1, cyclo(CGGTKEQGGGG)-BSA; assay: indirect ELISA
[17] = target: T10, Linear CGGTKEQGGGG-BSA (also: conjugated to BSA); assay: indirect ELISA
T10 construct: linear peptide-BSA screening antigen; also called (2,4)-L-BSA; 2,4-L-BSA
T10 peptide: CGGTKEQGGGG

[18] = target: T3, cyclo(CGTKEQGGGG)-BSA; assay: indirect ELISA
[19] = target: T11, Linear CGGTKEQGG-BSA (also: conjugated to BSA); assay: indirect ELISA
T11 construct: linear peptide-BSA screening antigen; also called (2,2)-L-BSA; (2, 2) L-BSA
T11 peptide: CGGTKEQGG

[20] = target: T12, cyclo(CGGTKEQGG)-BSA (also: conjugated to BSA via maleimide-based coupling); assay: indirect ELISA
T12 construct: also called (2,2)-C-BSA; (2, 2) C-BSA
T12 peptide: cyclo(CGGTKEQGG)

[21] = target: T5, alpha-synuclein sonicated preformed …; assay: cell-based or functional assay
[22] = target: alpha-synuclein in Lewy Body Disease (LBD/DLB) brain (human, UniProt P37840 1-140); assay: dot blot signal on LBD brain extract over control brain extract
[23] = target: T13, cyclo(CGGGEKTKGG)-BSA (also: conjugated to BSA via maleimide-based coupling); assay: indirect ELISA
T13 construct: also called ASPEP(3,2)-C-BSA
T13 peptide: cyclo(CGGGEKTKGG)

[24] = target: T14, human complement factor H (HCFH) (human, UniProt P08603 19-1231); assay: indirect ELISA
T14 construct: unrelated protein in ELISA

[25] = target: T7, Human Transferrin; assay: indirect ELISA; remark: listed apart in the source
[26] = target: T8, Bovine serum albumin (BSA); assay: indirect ELISA; remark: listed apart in the source
[27] = target: T15, cyclo(CGGGGEKTKGG)-BSA (also: conjugated to BSA); assay: indirect ELISA
T15 construct: also called ASPEP(4,2)-C-BSA
T15 peptide: cyclo(CGGGGEKTKGG)

[28] = target: T5, alpha-synuclein sonicated preformed …
[29] = target: T5, alpha-synuclein sonicated preformed …; assay: SPR, antibody immobilized (~5000 RU), serial dilutions of analyte
[30] = target: T4, alpha-synuclein oligomers; assay: SPR, antibody immobilized, kinetic fitting, 1:1 model; antigen form: oligomers

T7 sequence (P02787 20-698 limits assumed): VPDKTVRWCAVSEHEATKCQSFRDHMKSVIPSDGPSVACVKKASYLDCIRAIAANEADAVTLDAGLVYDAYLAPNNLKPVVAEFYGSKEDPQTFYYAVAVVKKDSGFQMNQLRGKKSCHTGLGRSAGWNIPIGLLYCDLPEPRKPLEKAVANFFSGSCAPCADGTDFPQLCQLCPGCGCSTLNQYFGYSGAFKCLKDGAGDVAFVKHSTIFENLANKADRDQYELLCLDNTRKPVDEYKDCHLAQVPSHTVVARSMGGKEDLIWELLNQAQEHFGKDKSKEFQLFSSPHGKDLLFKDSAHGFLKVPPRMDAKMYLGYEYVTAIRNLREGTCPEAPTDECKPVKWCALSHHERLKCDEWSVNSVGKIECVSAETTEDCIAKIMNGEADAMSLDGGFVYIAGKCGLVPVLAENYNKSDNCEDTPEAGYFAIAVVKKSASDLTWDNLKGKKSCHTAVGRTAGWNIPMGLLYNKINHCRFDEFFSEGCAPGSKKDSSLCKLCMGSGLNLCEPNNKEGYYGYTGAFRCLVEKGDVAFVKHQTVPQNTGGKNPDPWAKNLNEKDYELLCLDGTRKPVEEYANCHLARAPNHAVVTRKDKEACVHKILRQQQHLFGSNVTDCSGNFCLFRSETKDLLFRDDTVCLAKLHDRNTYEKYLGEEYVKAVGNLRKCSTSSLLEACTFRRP
T8 sequence (P02769 25-607 limits assumed): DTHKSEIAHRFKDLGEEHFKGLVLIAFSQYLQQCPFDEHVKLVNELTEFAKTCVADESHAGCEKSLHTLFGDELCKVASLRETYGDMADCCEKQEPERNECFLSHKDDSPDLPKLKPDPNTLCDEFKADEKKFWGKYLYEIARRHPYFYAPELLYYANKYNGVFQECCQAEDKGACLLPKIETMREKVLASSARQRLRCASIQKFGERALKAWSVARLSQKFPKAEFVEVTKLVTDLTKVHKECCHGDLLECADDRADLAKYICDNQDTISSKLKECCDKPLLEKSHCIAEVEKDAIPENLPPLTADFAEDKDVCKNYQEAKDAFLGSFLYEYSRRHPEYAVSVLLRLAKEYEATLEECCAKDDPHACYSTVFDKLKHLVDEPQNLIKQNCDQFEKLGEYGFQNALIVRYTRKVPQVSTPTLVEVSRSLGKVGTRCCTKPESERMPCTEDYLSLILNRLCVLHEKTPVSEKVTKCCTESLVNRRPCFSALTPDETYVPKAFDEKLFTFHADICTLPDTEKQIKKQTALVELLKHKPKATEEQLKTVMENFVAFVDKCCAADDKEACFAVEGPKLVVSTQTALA
T14 sequence (P08603 19-1231 limits assumed): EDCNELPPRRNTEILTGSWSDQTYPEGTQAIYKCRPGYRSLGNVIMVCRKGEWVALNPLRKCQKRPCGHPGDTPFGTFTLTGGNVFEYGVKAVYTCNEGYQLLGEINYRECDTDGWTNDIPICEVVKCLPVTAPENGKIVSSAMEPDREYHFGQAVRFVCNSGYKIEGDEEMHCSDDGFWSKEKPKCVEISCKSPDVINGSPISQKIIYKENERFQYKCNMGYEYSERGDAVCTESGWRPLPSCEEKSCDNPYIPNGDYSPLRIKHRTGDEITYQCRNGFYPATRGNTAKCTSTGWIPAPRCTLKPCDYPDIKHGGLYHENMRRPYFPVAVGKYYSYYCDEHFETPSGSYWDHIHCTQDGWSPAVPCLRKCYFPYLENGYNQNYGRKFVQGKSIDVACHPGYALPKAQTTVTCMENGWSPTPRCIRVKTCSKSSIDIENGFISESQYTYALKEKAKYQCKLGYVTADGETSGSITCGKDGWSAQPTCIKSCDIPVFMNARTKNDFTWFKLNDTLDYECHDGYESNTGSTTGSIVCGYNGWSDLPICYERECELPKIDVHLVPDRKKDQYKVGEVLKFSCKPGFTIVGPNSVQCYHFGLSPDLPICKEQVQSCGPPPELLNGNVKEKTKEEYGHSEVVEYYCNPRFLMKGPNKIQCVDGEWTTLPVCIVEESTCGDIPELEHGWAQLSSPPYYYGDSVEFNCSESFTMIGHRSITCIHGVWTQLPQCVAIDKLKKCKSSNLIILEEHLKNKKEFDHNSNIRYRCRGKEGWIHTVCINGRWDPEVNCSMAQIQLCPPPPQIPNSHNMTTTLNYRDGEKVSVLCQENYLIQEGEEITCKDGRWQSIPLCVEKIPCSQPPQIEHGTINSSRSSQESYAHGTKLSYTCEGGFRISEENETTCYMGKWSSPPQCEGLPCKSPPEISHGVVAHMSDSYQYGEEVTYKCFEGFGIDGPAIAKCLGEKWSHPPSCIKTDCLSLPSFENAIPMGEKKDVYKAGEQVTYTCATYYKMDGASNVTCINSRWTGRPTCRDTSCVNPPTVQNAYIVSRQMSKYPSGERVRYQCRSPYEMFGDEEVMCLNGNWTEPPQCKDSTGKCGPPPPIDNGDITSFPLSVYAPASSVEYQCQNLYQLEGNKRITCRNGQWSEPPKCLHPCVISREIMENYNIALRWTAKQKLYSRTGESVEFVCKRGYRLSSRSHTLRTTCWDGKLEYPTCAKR

B1: 9D8 (antibody, V domains shown)
VH: QVTLKESGPGILQPSQTLSLTCSFSGFSLSTSGMGVGWIRQPSGKGLEWLAHIWWDGDKRYNPALRSRLTISKDTSSNQVFLKIASVDTADTATYYCTRIVVPNFLFTYWGQGTLVTVSA
VL: DVLMTQTPLSLPVSLGDQASISCRSSQSIVQSNGNTYLEWYLQKPGQSPNLLIYKVSNRFSGVPDRFSGSGSGTDFTLKISRVEAEDLGVYYCFQGSHVPFTFGSGTKLEIK
[1]
  ELISA reading: 0.726
[2]
  ELISA reading: 0.043
[3]
  ELISA reading: 0.048
[4]
  dopaminergic neuron survival, antibody at 250 nM: 96.5 % of the control
[5]
  fold selectivity for fibrils versus monomers (from LLoQ): 93300 fold
[6]
  fold selectivity for oligomers versus monomers (from LLoQ): 9300 fold
[7]
  ELISA reading: 0.054
[8]
  ELISA reading: 1.18
[9]
  ELISA reading: 0.06
[10]
  ELISA reading: 0.055
[11]
  ELISA reading: 0.227

B2: 2E9 (antibody, V domains shown)
VH: EVKLLESGGGLVQPGGSLKLSCAASGFDFSRYWMNWVRQAPGKGLEWIGEINPHSSTINYAPSLKDKFIISRDNAKNTLYLQMSKVRSEDTALYYCGRGDYVDYWGLGTTLTVSS
VL: DIVMSQSPSSLAVSVGEKVTMSCKSSQSLLYSRNQKNYLAWYQQKPGQSPKLLIYWASTRESGVPDRFTGSGSGTDFTLTISSVKADDLAVYYCQQYYSYPRTFGGGTKLEIK
notes: also called test clone 2E9; test mAb 2E9
[12]
  Kd: 9 nM
[13]
  Kd: 431 nM
[14]
  ELISA reading: 0.044
[15]
  ELISA reading: 0.054
[16]
  ELISA reading: 0.055
[17]
  ELISA reading: 0.048
[18]
  ELISA reading: 1.91
[19]
  ELISA reading: 0.051
[20]
  ELISA reading: 0.047

B3: 3C11 (antibody, V domains shown)
VH: EVQLQQSGAELVKPGASVKLSCTASGFNIKDTYIHWMKQRPEQGLEWIGRIDPANGNTKYDPEFQDKATIAADTSSNTAYLQLSSLTSEDTAVYYCSNWDYFDYWGQGTALTVSS
VL: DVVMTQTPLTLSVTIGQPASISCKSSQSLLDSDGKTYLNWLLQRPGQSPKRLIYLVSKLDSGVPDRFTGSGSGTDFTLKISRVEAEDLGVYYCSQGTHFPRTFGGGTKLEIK
[21]
  endogenous phosphorylated α-syn aggregates in neurons exposed to PFFs, antibody at 0.05 µM: 153 % of the control
[4]
  dopaminergic neuron survival, antibody at 50 nM: 89.6 % of the control
[22]
  Fold of reactivity LBD vs. Control (LBD / Control): 26.6 fold
[23]
  ELISA reading: 1.17
[24]
  ELISA reading: 0.064
[25]
  ELISA reading: 0.054
[26]
  ELISA reading: 0.052
[27]
  ELISA reading: 0.567

B4: 12B12 (antibody, V domains shown)
VH: B3 VH with M37V, K59N, E63K, A71T, L83F, A110T
VL: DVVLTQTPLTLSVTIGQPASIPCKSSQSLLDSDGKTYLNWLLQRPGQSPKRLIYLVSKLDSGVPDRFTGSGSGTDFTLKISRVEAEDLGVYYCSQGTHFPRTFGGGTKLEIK
[12]
  koff: 2.09e-05 s⁻¹
  kon: 2530 M⁻¹ s⁻¹
[13]
  koff: 0.0013 s⁻¹
  kon: 1320 M⁻¹ s⁻¹
[21]
  endogenous phosphorylated α-syn aggregates in neurons exposed to PFFs, antibody at 0.05 µM: 145 % of the control
[4]
  dopaminergic neuron survival, antibody at 250 nM: 92.6 % of the control
[28]
  Kd: 8 nM
[22]
  Fold of reactivity LBD vs. Control (LBD / Control): 20.3 fold
[29]
  fold binding affinity, soluble fibril relative to monomer: > 10 fold
  fold binding affinity, soluble fibril relative to tetramer: > 20 fold
[23]
  ELISA reading: 1.28
[24]
  ELISA reading: 0.059
[25]
  ELISA reading: 0.045
[26]
  ELISA reading: 0.055
[27]
  ELISA reading: 0.851
[30]
  Kd: 985 nM
